Measurements: patent US20050262592

How the values were obtained:
[1] = biological target: T1, duckweed-produced human microplasminogen
T1 chain: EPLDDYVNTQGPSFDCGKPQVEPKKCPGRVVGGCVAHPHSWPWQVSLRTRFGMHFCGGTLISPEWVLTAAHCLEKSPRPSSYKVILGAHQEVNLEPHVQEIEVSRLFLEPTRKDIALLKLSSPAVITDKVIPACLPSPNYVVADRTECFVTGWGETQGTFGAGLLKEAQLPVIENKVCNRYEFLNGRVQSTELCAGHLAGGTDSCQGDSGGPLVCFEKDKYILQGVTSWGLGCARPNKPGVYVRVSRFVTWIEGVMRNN

[2] = biological target: T2, streptokinase, P00779
T2 chain: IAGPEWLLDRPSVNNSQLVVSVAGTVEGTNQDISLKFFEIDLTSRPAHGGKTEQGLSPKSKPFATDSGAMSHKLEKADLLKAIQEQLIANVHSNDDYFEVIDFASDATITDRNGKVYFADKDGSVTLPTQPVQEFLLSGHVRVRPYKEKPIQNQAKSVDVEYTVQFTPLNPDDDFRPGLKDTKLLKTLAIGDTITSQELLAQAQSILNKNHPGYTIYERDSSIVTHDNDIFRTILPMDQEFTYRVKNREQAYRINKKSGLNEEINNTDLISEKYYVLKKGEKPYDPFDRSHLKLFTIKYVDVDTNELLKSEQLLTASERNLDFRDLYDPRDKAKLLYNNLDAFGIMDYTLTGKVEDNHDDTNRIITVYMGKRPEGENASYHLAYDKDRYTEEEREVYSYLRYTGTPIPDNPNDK

B1: tissue plasminogen activator (protein)
chain: SYQVICRDEKTQMIYQQHQSWLRPVLRSNRVEYCWCNSGRAQCHSVPVKSCSEPRCFNGGTCQQALYFSDFVCQCPEGFAGKCCEIDTRATCYEDQGISYRGTWSTAESGAECTNWNSSALAQKPYSGRRPDAIRLGLGNHNYCRNPDRDSKPWCYVFKAGKYSSEFCSTPACSEGNSDCYFGNGSAYRGTHSLTESGASCLPWNSMILIGKVYTAQNPSAQALGLGKHNYCRNPDGDAKPWCHVLKNRRLTWEYCDVPSCSTCGLRQYSQPQFRIKGGLFADIASHPWQAAIFAKHRRSPGERFLCGGILISSCWILSAAHCFQERFPPHHLTVILGRTYRVVPGEEEQKFEVEKYIVHKEFDDDTYDNDIALLQLKSDSSRCAQESSVVRTVCLPPADLQLPDWTECELSGYGKHEALSPFYSERLKEAHVRLYPSSRCTSQHLLNRTVTDNMLCAGDTRSGGPQANLHDACQGDSGGPLVCLNDGRMTLVGIISWGLGCGQKDVPGVYTKVTNYLDWIRDNMRP
Western blot: production of the B chain of plasmin [1]: Western blot analysis confirmed the production of the B chain of plasmin following activation of duckweed-produced microplasminogen with either urokinase or tPA

B2: duckweed-produced human microplasminogen (protein)
chain: T1 chain
activity following activation by streptokinase (chromogenic substrate assay as for plasminogen) [2]: The duckweed-produced microplasminogen showed some level of activity in the absence of streptokinase, and a significant increase in activity following activation by streptokinase

B3: duckweed-produced human plasminogen (protein)
chain: KVYLSECKTGNGKNYRGTMSKTKNGITCQKWSSTSPHRPRFSPATHPSEGLEENYCRNPDNDPQGPWCYTTDPEKRYDYCDILECEEECMHCSGENYDGKISKTMSGLECQAWDSQSPHAHGYIPSKFPNKNLKKNYCRNPDRELRPWCFTTDPNKRWELCDIPRCTTPPPSSGPTYQCLKGTGENYRGNVAVTVSGHTCQHWSAQTPHTHNRTPENFPCKNLDENYCRNPDGKRAPWCHTTNSQVRWEYCKIPSCDSSPVSTEQLAPTAPPELTPVVQDCYHGDGQSYRGTSSTTTTGKKCQSWSSMTPHRHQKTPENYPNAGLTMNYCRNPDADKGPWCFTTDPSVRWEYCNLKKCSGTEASVVAPPPVVLLPDVETPSEEDCMFGNGKGYRGKRATTVTGTPCQDWAAQEPHRHSIFTPETNPRAGLEKNYCRNPDGDVGGPWCYTTNPRKLYDYCDVPQCAAPSFDCGKPQVEPKKCPGRVVGGCVAHPHSWPWQVSLRTRFGMHFCGGTLISPEWVLTAAHCLEKSPRPSSYKVILGAHQEVNLEPHVQEIEVSRLFLEPTRKDIALLKLSSPAVITDKVIPACLPSPNYVVADRTECFVTGWGETQGTFGAGLLKEAQLPVIENKVCNRYEFLNGRVQSTELCAGHLAGGTDSCQGDSGGPLVCFEKDKYILQGVTSWGLGCARPNKPGVYVRVSRFVTWIEGVMRNN
cleavage of the chromogenic substrate Glu-Phe-Lys-pNA at 405 nm [2]: For each of the seven transgenic lines tested, the activity level was closely correlated with the protein expression levels as determined by ELISA | streptokinase activity assay (cleavage of a chromogenic substrate, Coamatic plasminogen kit) [2]: Activation with streptokinase also produced activated plasminogen
